Source: EP4725501A1
Read-outs that look alike come from different tables or passages of the source.

Tests used:
[1] = target: monkey MASP3-His (monkey); experiment: ELISA; antigen coated 0.1 ug/well, antibody titrated, goat anti-human IgG-HRP
mouse MASP3-His (mouse) = mouse MASP3-His (mouse) (UniProt P98064); experiment: as above
human MASP3-His (human) [2] = target: human MASP3-His (human) (UniProt P48740); experiment: as above
[3] = target: MASP3 in Factor D depleted human plasma (human) (UniProt P48740); experiment: cell-based or functional assay
human MASP3-His (human) [4] = target: human MASP3-His (human) (UniProt P48740); experiment: cell-based or functional assay
[5] = target: MASP3 in Factor D depleted human plasma (human) (UniProt P48740); experiment: cell-based or functional assay; remark: listed apart in the source

Chain of MASP3 in Factor D depleted human plasma (human) (P48740 other isoform, or with tags, fused parts or gaps): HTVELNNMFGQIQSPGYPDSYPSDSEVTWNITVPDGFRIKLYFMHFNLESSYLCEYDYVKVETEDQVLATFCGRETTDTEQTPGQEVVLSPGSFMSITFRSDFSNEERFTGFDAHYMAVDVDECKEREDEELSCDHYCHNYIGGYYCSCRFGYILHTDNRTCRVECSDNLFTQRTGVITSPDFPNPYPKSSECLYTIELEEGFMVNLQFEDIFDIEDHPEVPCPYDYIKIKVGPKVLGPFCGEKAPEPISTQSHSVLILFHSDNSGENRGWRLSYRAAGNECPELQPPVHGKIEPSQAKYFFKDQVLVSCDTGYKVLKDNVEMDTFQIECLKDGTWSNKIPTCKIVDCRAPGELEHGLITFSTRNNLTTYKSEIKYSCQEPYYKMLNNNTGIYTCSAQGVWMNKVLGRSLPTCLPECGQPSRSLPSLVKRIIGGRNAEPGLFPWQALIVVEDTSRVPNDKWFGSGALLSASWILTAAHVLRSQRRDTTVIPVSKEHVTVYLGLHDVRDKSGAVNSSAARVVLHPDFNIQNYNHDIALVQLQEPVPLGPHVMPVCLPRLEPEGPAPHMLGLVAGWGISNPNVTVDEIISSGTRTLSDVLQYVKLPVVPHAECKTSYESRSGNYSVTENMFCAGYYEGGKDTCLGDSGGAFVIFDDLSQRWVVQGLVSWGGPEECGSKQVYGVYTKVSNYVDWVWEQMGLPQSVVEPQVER
Chain of human MASP3-His (human) (P48740 other isoform, or with tags, fused parts or gaps): as above
Chain of mouse MASP3-His (mouse) (P98064 other isoform, or with tags, fused parts or gaps): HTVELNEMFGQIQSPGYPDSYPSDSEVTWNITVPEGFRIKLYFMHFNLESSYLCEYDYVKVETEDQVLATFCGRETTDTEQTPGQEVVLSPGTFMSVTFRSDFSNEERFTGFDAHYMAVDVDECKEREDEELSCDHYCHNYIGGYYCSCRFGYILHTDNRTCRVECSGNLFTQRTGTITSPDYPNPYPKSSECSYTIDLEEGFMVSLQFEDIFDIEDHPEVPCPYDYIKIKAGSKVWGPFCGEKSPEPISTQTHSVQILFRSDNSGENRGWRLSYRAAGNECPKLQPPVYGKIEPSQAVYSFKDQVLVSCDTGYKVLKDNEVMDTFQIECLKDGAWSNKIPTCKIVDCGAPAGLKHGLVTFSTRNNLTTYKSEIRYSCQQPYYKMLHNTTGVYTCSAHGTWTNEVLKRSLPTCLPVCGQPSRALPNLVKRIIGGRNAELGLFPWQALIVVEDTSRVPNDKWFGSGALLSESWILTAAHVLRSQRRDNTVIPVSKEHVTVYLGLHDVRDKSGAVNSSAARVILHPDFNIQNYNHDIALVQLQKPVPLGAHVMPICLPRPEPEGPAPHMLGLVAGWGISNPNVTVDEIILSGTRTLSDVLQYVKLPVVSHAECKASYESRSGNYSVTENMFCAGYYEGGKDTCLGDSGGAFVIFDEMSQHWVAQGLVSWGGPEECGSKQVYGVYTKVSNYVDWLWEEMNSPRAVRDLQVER

EC50 [1]: 2.97 nM
EC50 (mouse MASP3-His (mouse)): 5.33 nM
EC50 (human MASP3-His (human) [2]): 0.98 nM
IC50 (nM), inhibition of MASP3 enzyme activity (cleavage of fluorescent tripeptide Boc-Val-Pro-Arg-AMC) (human MASP3-His (human) [4]): 200 nM
Substance: OMS906 (antibody)
Inhibit hemolysis IC50 [3]: 17.1 nM
Inhibit hemolysis IC50 [5]: 13 nM
